125 sequences from the supplement of paper PMC9112550, “Optimization of the antimicrobial peptide Bac7 by deep mutational scanning” (BMC Biology, 2022) can be followed below.

The test system of the data set is Escherichia coli TOP10. Put plainly: shrunken log2 fold change of peptide-encoding DNA abundance (4.5 h post-induction vs induction); higher = less antimicrobial activity (less host growth inhibition). Conditions: time post-induction: 4.5 h; library: site-saturation at positions 5, 18, 19, 20.
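Further: peptides expressed intracellularly from a pBAD plasmid library in pooled LB shake-flask culture, induced with 0.3% L-arabinose, DNA abundance read by NGS, three biological replicates, DESeq2 with apeglm shrinkage.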

With RRIRCRPPRLPRPRPRPMHLPRP, the “shrunken log2 fold change” value was found to be 0.0527.
In the case of RRIRWRPPRLPRPRPRPGFRPRP it was 0.221; in that of RRIRNRPPRLPRPRPRPEHQPRP, -0.029; in that of RRIRNRPPRLPRPRPRPMHNPRP, -0.286.
In the case of RRIRERPPRLPRPRPRPLFMPRP it was -0.222; in that of RRIRFRPPRLPRPRPRPKEIPRP, -0.0277; in that of RRIRSRPPRLPRPRPRPKMYPRP, -0.0737.
For RRIRVRPPRLPRPRPRPDCQPRP, the “shrunken log2 fold change” value stood at 0.00516.
With RRIRMRPPRLPRPRPRPKVRPRP the figure was 0.00262.
Turning to RRIRARPPRLPRPRPRPPAAPRP, the “shrunken log2 fold change” value was found to be 1.12.
With RRIRKRPPRLPRPRPRPADQPRP the figure was -0.0199; with RRIRQRPPRLPRPRPRPENTPRP, -0.387; with RRIRPRPPRLPRPRPRPCKPPRP, -0.136.
With RRIRRRPPRLPRPRPRPAAHPRP the figure was 0.361; with RRIRKRPPRLPRPRPRPTYGPRP, 0.043.
With RRIRTRPPRLPRPRPRPMAVPRP the figure was -0.296; with RRIRPRPPRLPRPRPRPDCGPRP, 0.093.
For the sequence RRIRHRPPRLPRPRPRPHYPPRP, the “shrunken log2 fold change” value was -0.208.
As for RRIRHRPPRLPRPRPRPPTQPRP, the “shrunken log2 fold change” value came to 0.137.
With RRIRVRPPRLPRPRPRPIWIPRP the figure was 0.0696.
In the case of RRIRIRPPRLPRPRPRPIMEPRP it was -0.216.
In the case of RRIRIRPPRLPRPRPRPSRIPRP it was -0.0712; in that of RRIRIRPPRLPRPRPRPHTEPRP, 0.0578; in that of RRIRDRPPRLPRPRPRPDVAPRP, 0.0356.
Regarding RRIRFRPPRLPRPRPRPYWQPRP, the “shrunken log2 fold change” value was -0.9.
With RRIRLRPPRLPRPRPRPKAEPRP the figure was 0.375.
With RRIRLRPPRLPRPRPRPNPCPRP the figure was -0.398; with RRIRHRPPRLPRPRPRPFFTPRP, -0.231; with RRIRCRPPRLPRPRPRPVTWPRP, -0.417.
With RRIRVRPPRLPRPRPRPIVNPRP the figure was -0.11; with RRIRYRPPRLPRPRPRPQEVPRP, 0.013.
Regarding RRIRFRPPRLPRPRPRPPMVPRP, the “shrunken log2 fold change” value is -0.391.
In the case of RRIRDRPPRLPRPRPRPPNCPRP it was -0.0514.
In the case of RRIRFRPPRLPRPRPRPETSPRP, the “shrunken log2 fold change” value was 0.0493.
In the case of RRIRSRPPRLPRPRPRPSNHPRP, the “shrunken log2 fold change” value is -0.503.
In the case of RRIRARPPRLPRPRPRPSYAPRP it was -0.165; in that of RRIRNRPPRLPRPRPRPGYFPRP, -0.541.
In the case of RRIRWRPPRLPRPRPRPMNYPRP it was -0.364; in that of RRIRSRPPRLPRPRPRPKQPPRP, 0.0683; in that of RRIRNRPPRLPRPRPRPFFMPRP, 0.0606.
Consider RRIRIRPPRLPRPRPRPAFSPRP, for which the “shrunken log2 fold change” value is -0.155.
With RRIRSRPPRLPRPRPRPEFIPRP, the “shrunken log2 fold change” value came to 0.162.
In the case of RRIRVRPPRLPRPRPRPWGSPRP it was -0.137.
In the case of RRIRVRPPRLPRPRPRPLIGPRP it was 0.0681.
With RRIRHRPPRLPRPRPRPRYIPRP the figure was -0.528.
For RRIRQRPPRLPRPRPRPQSHPRP, the “shrunken log2 fold change” value is -0.309.
With RRIRERPPRLPRPRPRPAMSPRP the figure was -0.0829; with RRIRMRPPRLPRPRPRPGPVPRP, 1.14.
In the case of RRIRMRPPRLPRPRPRPFYHPRP it was -0.537; in that of RRIRFRPPRLPRPRPRPNPVPRP, -0.117.
In the case of RRIRYRPPRLPRPRPRPRQFPRP it was -0.379; in that of RRIRIRPPRLPRPRPRPTPCPRP, 0.598.
Take RRIRQRPPRLPRPRPRPYACPRP: the “shrunken log2 fold change” value came out at 0.0958.
As to RRIRGRPPRLPRPRPRPTAVPRP, the “shrunken log2 fold change” value worked out at 2.41.
In the case of RRIRNRPPRLPRPRPRPKWNPRP, the “shrunken log2 fold change” value is -0.319.
As to RRIRNRPPRLPRPRPRPTINPRP, the “shrunken log2 fold change” value was -0.515.
Take RRIRLRPPRLPRPRPRPMGFPRP: the “shrunken log2 fold change” value is -0.159.
With RRIRMRPPRLPRPRPRPCCRPRP, the “shrunken log2 fold change” value stood at 0.0467.
With RRIRRRPPRLPRPRPRPYETPRP the figure was 0.119; with RRIRDRPPRLPRPRPRPFRRPRP, 0.0456.
RRIRGRPPRLPRPRPRPNHVPRP: the “shrunken log2 fold change” value was 0.425.
With RRIRARPPRLPRPRPRPVYNPRP the figure was -0.482; with RRIRARPPRLPRPRPRPWIMPRP, -0.332.
In the case of RRIRWRPPRLPRPRPRPRVNPRP it was 0.478.
With RRIRCRPPRLPRPRPRPQDFPRP the figure was 0.0295; with RRIRPRPPRLPRPRPRPFRSPRP, -0.152.
As for RRIRARPPRLPRPRPRPFPYPRP, the “shrunken log2 fold change” value was -0.164.
With RRIRARPPRLPRPRPRPLNNPRP the figure was -0.346.
For RRIRSRPPRLPRPRPRPDLVPRP, the “shrunken log2 fold change” value is 0.0452.
With RRIRQRPPRLPRPRPRPGSEPRP the figure was 0.0985.
Take RRIRFRPPRLPRPRPRPQRDPRP: the “shrunken log2 fold change” value amounted to 0.218.
As to RRIRMRPPRLPRPRPRPQEQPRP, the “shrunken log2 fold change” value amounted to 0.186.
In the case of RRIRGRPPRLPRPRPRPFHNPRP it was -0.388; in that of RRIRPRPPRLPRPRPRPDLHPRP, -0.316.
RRIRFRPPRLPRPRPRPTKIPRP: the “shrunken log2 fold change” value was determined as 0.359.
For RRIRTRPPRLPRPRPRPTVKPRP, the “shrunken log2 fold change” value amounted to 3.07.
RRIRRRPPRLPRPRPRPNQHPRP: the “shrunken log2 fold change” value worked out at 0.00413.
In the case of RRIRERPPRLPRPRPRPLEDPRP it was -0.157; in that of RRIRERPPRLPRPRPRPYYHPRP, -1.58.
With RRIRDRPPRLPRPRPRPASCPRP the figure was 0.0585; with RRIRARPPRLPRPRPRPNYCPRP, -0.223; with RRIRERPPRLPRPRPRPTEPPRP, 0.0207.
In the case of RRIRHRPPRLPRPRPRPPYCPRP it was -0.0539.
On to RRIRKRPPRLPRPRPRPTPDPRP, for which the “shrunken log2 fold change” value is 0.559.
Regarding RRIRDRPPRLPRPRPRPFHQPRP, the “shrunken log2 fold change” value is -0.0388.
With RRIRHRPPRLPRPRPRPENPPRP, the “shrunken log2 fold change” value is -0.277.
In the case of RRIRDRPPRLPRPRPRPCGGPRP it was 0.132; in that of RRIRQRPPRLPRPRPRPMLVPRP, 0.142.
With RRIRLRPPRLPRPRPRPHATPRP the figure was -0.0435; with RRIRCRPPRLPRPRPRPVVTPRP, -0.0488; with RRIRDRPPRLPRPRPRPKNGPRP, 0.74.
Regarding RRIRIRPPRLPRPRPRPRIGPRP, the “shrunken log2 fold change” value is -0.0469.
Turning to RRIRMRPPRLPRPRPRPHPGPRP, the “shrunken log2 fold change” value is 0.293.
On to RRIRRRPPRLPRPRPRPTMNPRP, for which the “shrunken log2 fold change” value is -0.0748.
In the case of RRIRPRPPRLPRPRPRPYYKPRP it was -0.215; in that of RRIRVRPPRLPRPRPRPEVYPRP, -0.0457; in that of RRIRGRPPRLPRPRPRPKNRPRP, 0.368.
As for RRIRERPPRLPRPRPRPEVFPRP, the “shrunken log2 fold change” value is 0.0133.
In the case of RRIRQRPPRLPRPRPRPWFKPRP it was -0.183.
For RRIRARPPRLPRPRPRPEYEPRP, the “shrunken log2 fold change” value amounted to 0.262.
Turning to RRIRDRPPRLPRPRPRPMDRPRP, the “shrunken log2 fold change” value is -0.01.
In the case of RRIRWRPPRLPRPRPRPNREPRP it was -0.0677.
In the case of RRIRGRPPRLPRPRPRPFVIPRP it was 0.215.
In the case of RRIRERPPRLPRPRPRPPLSPRP it was -0.212; in that of RRIRWRPPRLPRPRPRPMARPRP, 0.00968; in that of RRIRTRPPRLPRPRPRPWLEPRP, 0.218.
Regarding RRIRFRPPRLPRPRPRPNNEPRP, the “shrunken log2 fold change” value was -0.265.
In the case of RRIRERPPRLPRPRPRPSAGPRP it was -0.118.
With RRIRNRPPRLPRPRPRPISYPRP, the “shrunken log2 fold change” value is -0.029.
In the case of RRIRWRPPRLPRPRPRPRRHPRP it was 0.559.
With RRIRRRPPRLPRPRPRPAVLPRP the figure was -0.00596.
With RRIRFRPPRLPRPRPRPWKQPRP, the “shrunken log2 fold change” value was -0.469.
In the case of RRIRTRPPRLPRPRPRPKHPPRP it was -0.317; in that of RRIRFRPPRLPRPRPRPTSIPRP, -0.296.
As for RRIRNRPPRLPRPRPRPHACPRP, the “shrunken log2 fold change” value was determined as 0.0169.
With RRIRFRPPRLPRPRPRPQVHPRP the figure was -0.262; with RRIRNRPPRLPRPRPRPENRPRP, -0.0205.
Take RRIRCRPPRLPRPRPRPLVTPRP: the “shrunken log2 fold change” value was -0.195.
With RRIRNRPPRLPRPRPRPCFAPRP the figure was 0.0964; with RRIRRRPPRLPRPRPRPEQDPRP, 0.727; with RRIRARPPRLPRPRPRPHKQPRP, -0.0718.
As for RRIRQRPPRLPRPRPRPPWGPRP, the “shrunken log2 fold change” value worked out at 0.242.
With RRIRYRPPRLPRPRPRPKPIPRP the figure was 0.0874; with RRIRFRPPRLPRPRPRPTVYPRP, -0.307; with RRIRCRPPRLPRPRPRPCGPPRP, -0.104.
